Measurements taken from publication PMC9352680, “A comprehensive thermodynamic model for RNA binding by the Saccharomyces cerevisiae Pumilio protein PUF4”.

Molecular target: T1, PUF4 RNA-binding domain (Saccharomyces cerevisiae, UniProt P25339 537-888)
T1 sequence: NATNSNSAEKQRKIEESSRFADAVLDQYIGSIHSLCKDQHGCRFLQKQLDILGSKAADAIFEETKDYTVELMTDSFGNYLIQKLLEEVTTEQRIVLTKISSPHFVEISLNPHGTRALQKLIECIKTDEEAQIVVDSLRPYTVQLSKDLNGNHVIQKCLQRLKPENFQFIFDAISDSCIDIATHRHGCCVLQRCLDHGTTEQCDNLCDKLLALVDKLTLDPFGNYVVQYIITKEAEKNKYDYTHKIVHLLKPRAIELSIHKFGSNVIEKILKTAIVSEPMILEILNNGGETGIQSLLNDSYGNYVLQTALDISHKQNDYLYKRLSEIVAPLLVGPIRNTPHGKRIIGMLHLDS
Test: Mg; RNA-MaP; 20 mM Na-HEPES pH 7.4, 30 mM KOAc, 0.75 mM MgCl2, 0.1% Tween-20, 5% glycerol, 0.1 mg/mL BSA, 2 mM DTT; 25 C; 0.0125-409.6 nM protein
Conditions: tags: N-His6-TEV cleaved; C-SNAP kept, Cy3B-labelled; label: tethered on chip by stalled RNA polymerase

UCUCUUCAUAUAUUAUUAUCUCUCUU (ssRNA) [Id_ii_S1_P5E.3_K5.2_C5.2_[T-1A]_H5.2_A5.1_F5.1_T5.2_[A12C]]
Kd: 180 nM

UCUCUUCAUAUAUUAUUAUUUCUCUU (ssRNA) [Id_ii_S1_P5E.3_K5.2_C5.2_[T-1A]_H5.2_A5.1_F5.1_T5.2_[A12T]]
Kd: 395 nM

UCUCUUCUUAUAUUAUUAGCUCUCUU (ssRNA) [Id_ii_S1_P5E.3_K5.2_C5.2_H5.2_A5.1_F5.1_T5.2_[T11G]_[A12C]]
Kd: 122 nM

UCUCUUUGUAUUAGUCUCUCUU (ssRNA) [Ib_S1_P5E.1_K5.1_C5.1_H5.1_A5.1_F5.1_[T8G]_[A10C]_T5.1]
Kd: 518 nM

UCUCUUCUUAUAUUAUUAGUUCUCUU (ssRNA) [Id_ii_S1_P5E.3_K5.2_C5.2_H5.2_A5.1_F5.1_T5.2_[T11G]_[A12T]]
Kd: 82.2 nM

UCUCUUCUUAUAUUAUUACGUCUCUU (ssRNA) [Id_ii_S1_P5E.3_K5.2_C5.2_H5.2_A5.1_F5.1_T5.2_[T11C]_[A12G]]
Kd: 447 nM

UCUCUUCUUAUAUUAUUACCUCUCUU (ssRNA) [Id_ii_S1_P5E.3_K5.2_C5.2_H5.2_A5.1_F5.1_T5.2_[T11C]_[A12C]]
Kd: 571 nM

UCUCUUCUUAUAUUAUUACUUCUCUU (ssRNA) [Id_ii_S1_P5E.3_K5.2_C5.2_H5.2_A5.1_F5.1_T5.2_[T11C]_[A12T]]
Kd: 439 nM

UCUCUUCUUAUAUUAUUACAUCUCUU (ssRNA) [Id_ii_S1_P5E.3_K5.2_C5.2_H5.2_A5.1_F5.1_T5.2_[T11C]]
Kd: 471 nM

UCUCUUCUUAUAUUAUUAACUCUCUU (ssRNA) [Id_ii_S1_P5E.3_K5.2_C5.2_H5.2_A5.1_F5.1_T5.2_[T11A]_[A12C]]
Kd: 476 nM

UCUCUUCUUAUAUUAUUAAUUCUCUU (ssRNA) [Id_ii_S1_P5E.3_K5.2_C5.2_H5.2_A5.1_F5.1_T5.2_[T11A]_[A12T]]
Kd: 460 nM

UCUCUUCUUAUAUUAUUAAAUCUCUU (ssRNA) [Id_ii_S1_P5E.3_K5.2_C5.2_H5.2_A5.1_F5.1_T5.2_[T11A]]
Kd: 730 nM

UCUCUUCUUAUAUUAUUAUCUCUCUU (ssRNA) [Id_ii_S1_P5E.3_K5.2_C5.2_H5.2_A5.1_F5.1_T5.2_[A12C]]
Kd: 491 nM

UCUCUUCUUAUAUUAUUAUUUCUCUU (ssRNA) [Id_ii_S1_P5E.3_K5.2_C5.2_H5.2_A5.1_F5.1_T5.2_[A12T]]
Kd: 228 nM

UCUCUUUGUAUUACUGUCUCUU (ssRNA) [Ib_S1_P5E.1_K5.1_C5.1_H5.1_A5.1_F5.1_[T8C]_[A10G]_T5.1]
Kd: 71.2 nM

UCUCUUGGACACUUAUUAACUCUCUU (ssRNA) [Id_ii_S1_P5E.4_K5.3_C5.2_[C-2G]_[T-1G]_H5.3_A5.1_F5.1_T5.2_[T11A]_[A12C]]
Kd: > 2300 nM

UCUCUUGGACACUUAUUAUAUCUCUU (ssRNA) [Id_ii_S1_P5E.4_K5.3_C5.2_[C-2G]_[T-1G]_H5.3_A5.1_F5.1_T5.2]
Kd: > 2300 nM

UCUCUUGCACACUUAUUACGUCUCUU (ssRNA) [Id_ii_S1_P5E.4_K5.3_C5.2_[C-2G]_[T-1C]_H5.3_A5.1_F5.1_T5.2_[T11C]_[A12G]]
Kd: > 2300 nM

UCUCUUGCACACUUAUUACCUCUCUU (ssRNA) [Id_ii_S1_P5E.4_K5.3_C5.2_[C-2G]_[T-1C]_H5.3_A5.1_F5.1_T5.2_[T11C]_[A12C]]
Kd: 1320 nM

UCUCUUGCACACUUAUUACUUCUCUU (ssRNA) [Id_ii_S1_P5E.4_K5.3_C5.2_[C-2G]_[T-1C]_H5.3_A5.1_F5.1_T5.2_[T11C]_[A12T]]
Kd: 1530 nM

UCUCUUGCACACUUAUUACAUCUCUU (ssRNA) [Id_ii_S1_P5E.4_K5.3_C5.2_[C-2G]_[T-1C]_H5.3_A5.1_F5.1_T5.2_[T11C]]
Kd: 1210 nM

UCUCUUGCACACUUAUUAACUCUCUU (ssRNA) [Id_ii_S1_P5E.4_K5.3_C5.2_[C-2G]_[T-1C]_H5.3_A5.1_F5.1_T5.2_[T11A]_[A12C]]
Kd: 1890 nM

UCUCUUGCACACUUAUUAAUUCUCUU (ssRNA) [Id_ii_S1_P5E.4_K5.3_C5.2_[C-2G]_[T-1C]_H5.3_A5.1_F5.1_T5.2_[T11A]_[A12T]]
Kd: 1370 nM

UCUCUUGCACACUUAUUAUCUCUCUU (ssRNA) [Id_ii_S1_P5E.4_K5.3_C5.2_[C-2G]_[T-1C]_H5.3_A5.1_F5.1_T5.2_[A12C]]
Kd: 1160 nM

UCUCUUGCACACUUAUUAUUUCUCUU (ssRNA) [Id_ii_S1_P5E.4_K5.3_C5.2_[C-2G]_[T-1C]_H5.3_A5.1_F5.1_T5.2_[A12T]]
Kd: 1420 nM

UCUCUUUGUAUUACUCUCUCUU (ssRNA) [Ib_S1_P5E.1_K5.1_C5.1_H5.1_A5.1_F5.1_[T8C]_[A10C]_T5.1]
Kd: 133 nM

UCUCUUGCACACUUAUUAUAUCUCUU (ssRNA) [Id_ii_S1_P5E.4_K5.3_C5.2_[C-2G]_[T-1C]_H5.3_A5.1_F5.1_T5.2]
Kd: 766 nM

UCUCUUGUACACUUAUUAGCUCUCUU (ssRNA) [Id_ii_S1_P5E.4_K5.3_C5.2_[C-2G]_H5.3_A5.1_F5.1_T5.2_[T11G]_[A12C]]
Kd: 5.16 nM

UCUCUUGUACACUUAUUACCUCUCUU (ssRNA) [Id_ii_S1_P5E.4_K5.3_C5.2_[C-2G]_H5.3_A5.1_F5.1_T5.2_[T11C]_[A12C]]
Kd: 3.22 nM

UCUCUUGUACACUUAUUACUUCUCUU (ssRNA) [Id_ii_S1_P5E.4_K5.3_C5.2_[C-2G]_H5.3_A5.1_F5.1_T5.2_[T11C]_[A12T]]
Kd: 5.88 nM

UCUCUUGUACACUUAUUAAUUCUCUU (ssRNA) [Id_ii_S1_P5E.4_K5.3_C5.2_[C-2G]_H5.3_A5.1_F5.1_T5.2_[T11A]_[A12T]]
Kd: 4.75 nM
